The results in this text go back to publication PMC12494564, “CLIC5A binds to and stabilizes the open and active conformation of ezrin” (The Journal of Biological Chemistry, 2025).

In the assay the target is GST-His6x-CLIC5A (human, UniProt Q9NZA1-2 1-251, fluorescent label from the Monolith His-Tag Labeling Kit RED-tris-nitriloacetic acid). The experiment in a line: MST; 100 nM fluorescently labeled (RED-tris-NTA) GST-His6x-CLIC5A or GST-His6x, unlabeled ezrin_(482-586) from 412 μM to 12.6 nM in the labeling buffer; Monolith NT.115, ambient temperature, 40% MST power, 30% LED power. To be noted: both partners purified.
Sequence of GST-His6x-CLIC5A (Q9NZA1 other isoform, or with tags, fused parts or gaps): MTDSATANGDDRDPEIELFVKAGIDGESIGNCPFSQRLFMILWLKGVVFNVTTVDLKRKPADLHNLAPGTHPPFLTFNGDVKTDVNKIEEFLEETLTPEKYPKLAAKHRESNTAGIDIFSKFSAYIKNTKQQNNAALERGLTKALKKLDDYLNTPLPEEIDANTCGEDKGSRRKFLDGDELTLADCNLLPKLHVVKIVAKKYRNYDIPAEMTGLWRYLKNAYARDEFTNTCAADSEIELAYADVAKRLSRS

B1: ezrin_(482-586) (H549N/T567E) (domain or fragment, human, UniProt P15311 482-586, looked up)
chain: SYHVQESLQDEGAEPTGYSAELSSEGIRDDRNEEKRITEAEKNERVQRQLLTLSSELSQARDENKRTNNDIIHNENMRQGRDKYKELRQIRQGNTKQRIDEFEAL
notes: ezrin, human; Expression plasmid created by ATUM; not shown: PagP, N-terminal, cleaved
B1 displayed a Kd of 29 µM.
